According to patent US20250092135A1 (NANJING LEADS BIOLABS, published 2025):

Columns and labels:
[1] = biological target: T1, Cynomolgus monkey CD3D & CD3E heterodimer protein (cynomolgus monkey, UniProt Q95LI5 22-117; Q95LI8 22-105); assay: BLI (ForteBio Octet RED96), antibody on AHC sensor, analyte 100-3.13 nM, 1:1 model
T1 construct: same catalogue number; also called monkey CD3 protein (Acro biosystems, Cat #CDD-C52W4)
Description: (§1) In this experiment, the binding affinity of the bispecific antibody for the human CD3 protein (Cat #CT038-H2508H, Sinobiological), cynomolgus monkey CD3 protein (Cat #CDD-C52W4, Acrobiosystems), human MUC16 protein (full-length human MUC16, the membrane-proximal end of the extracellular region of MUC16 (Table 26)), and cynomolgus monkey MUC16 protein (full-length cynomolgus monkey MUC16, the membrane-proximal end of the extracellular region of MUC16 (Table 26)) was detected using ForteBio Octet RED96 according to the manufacturer's instructions.
(§2) Briefly, an AHC sensor (ForteBio, Cat #18-5060) was placed in a running buffer (1×PBS, Hyclone, Cat #SH30256.01, containing 0.02% Tween 20, pH 7.0) and pre-equilibrated at room temperature for 10 min. […] The experimental data were fitted and calculated using a Fortebio Data Analysis software 1:1 binding model.

[2] = biological target: T2, Human CD3D & CD3E heterodimer protein (human, UniProt P07766 23-126; P04234 22-105); assay: as above
T2 construct: Bought recombinant heterodimer; also called human CD3 protein (Sino Biological, Cat #CT038-H2508H)
Description: as §1, §2

Human MUC16-His [3] = biological target: T3, Human MUC16-His (human); assay: as above
T3 construct: The entry includes the C-terminal 6xHis tag; also called membrane-proximal end of the extracellular region of the human MUC16 protein; Human MUC16 protein
T3 chain: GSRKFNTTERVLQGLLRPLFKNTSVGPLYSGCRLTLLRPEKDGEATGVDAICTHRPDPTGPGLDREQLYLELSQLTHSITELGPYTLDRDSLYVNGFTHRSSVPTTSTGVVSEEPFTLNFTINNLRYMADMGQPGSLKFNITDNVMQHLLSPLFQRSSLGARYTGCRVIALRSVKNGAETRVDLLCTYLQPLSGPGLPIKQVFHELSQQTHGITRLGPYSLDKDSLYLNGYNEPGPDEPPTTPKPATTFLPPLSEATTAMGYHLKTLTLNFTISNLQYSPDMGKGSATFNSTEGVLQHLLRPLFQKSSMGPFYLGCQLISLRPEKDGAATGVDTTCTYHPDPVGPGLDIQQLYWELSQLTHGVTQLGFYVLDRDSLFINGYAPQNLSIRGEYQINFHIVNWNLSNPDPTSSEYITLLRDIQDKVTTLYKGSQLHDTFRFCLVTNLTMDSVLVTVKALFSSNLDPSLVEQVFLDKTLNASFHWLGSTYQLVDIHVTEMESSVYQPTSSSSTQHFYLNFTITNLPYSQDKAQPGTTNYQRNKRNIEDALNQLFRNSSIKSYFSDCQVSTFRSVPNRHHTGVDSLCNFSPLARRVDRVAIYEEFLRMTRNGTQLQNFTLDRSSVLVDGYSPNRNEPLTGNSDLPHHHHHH
Description: as §1, §2

Human MUC16-His [4] = biological target: T3, Human MUC16-His; assay: BLI (ForteBio Octet RED96), antibody on AHC sensor, 1:1 model
Human MUC16-His [5] = biological target: T3, Human MUC16-His; assay: BLI (ForteBio Octet RED96), antibody on AHC sensor, 50 nM antigen, 1:1 model
Description: (§3) The binding affinity of the anti-MUC-16 antibodies for the membrane-proximal end of the extracellular region of the human MUC16 protein (human MUC16-His, Table 26) and the membrane-proximal end of the extracellular region of the rhesus monkey MUC16 protein (rhesus monkey MUC16-His, Table 26) was detected by ForteBio Octet RED96, respectively. According to the manufacturer's instructions, an AHC sensor (ForteBio, Cat #18-5060) was placed in a running buffer (lx PBS, Hyclone, Cat #SH30256.01, containing 0.02% Tween 20, pH 7.0) and pre-equilibrated at room temperature for 10 min. In a 96-well plate, the kinetic assay was performed according to the following steps: a) equilibrating the baseline for 100 s with the running buffer; b) diluting the anti-MUC-16 antibodies with the running buffer to 5 μg/mL, immobilizing for 200 s, and stopping; c) equilibrating the baseline for 300 s with the running buffer; and d) diluting the human or rhesus monkey MUC16 protein with the running buffer to 50 nM, binding for 200 s, and dissociating for 600 s. The experimental data were fitted and calculated using a Fortebio Data Analysis software 1:1 binding model.

Rhesus monkey MUC16-His = biological target: T4, Rhesus monkey MUC16-His (rhesus monkey); assay: as above
T4 construct: The entry includes the C-terminal 6xHis tag; also called membrane-proximal end of the extracellular region of the rhesus monkey MUC16 protein
T4 chain: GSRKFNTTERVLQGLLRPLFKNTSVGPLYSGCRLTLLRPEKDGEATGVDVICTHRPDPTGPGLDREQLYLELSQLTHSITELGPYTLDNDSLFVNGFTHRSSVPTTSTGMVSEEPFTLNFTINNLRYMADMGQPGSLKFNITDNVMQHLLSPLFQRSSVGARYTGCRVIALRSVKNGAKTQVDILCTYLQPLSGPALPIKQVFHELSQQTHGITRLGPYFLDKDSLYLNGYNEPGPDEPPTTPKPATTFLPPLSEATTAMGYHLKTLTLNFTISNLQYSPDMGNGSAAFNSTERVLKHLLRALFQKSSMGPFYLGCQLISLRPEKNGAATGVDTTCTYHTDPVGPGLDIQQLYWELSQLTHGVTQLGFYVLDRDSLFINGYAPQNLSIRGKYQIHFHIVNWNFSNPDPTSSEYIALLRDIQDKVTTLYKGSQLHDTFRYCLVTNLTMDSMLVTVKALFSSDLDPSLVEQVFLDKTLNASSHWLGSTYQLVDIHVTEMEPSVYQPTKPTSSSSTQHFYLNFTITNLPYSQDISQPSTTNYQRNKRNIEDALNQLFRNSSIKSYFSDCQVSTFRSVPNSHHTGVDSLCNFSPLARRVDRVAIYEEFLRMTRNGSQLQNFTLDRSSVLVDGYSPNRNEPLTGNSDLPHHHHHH
Description: as §3

T1 sequence (Q95LI5 22-117 limits assumed, chain 1 of 2): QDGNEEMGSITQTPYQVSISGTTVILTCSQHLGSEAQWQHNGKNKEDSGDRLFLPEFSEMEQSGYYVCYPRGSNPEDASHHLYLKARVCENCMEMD
T1 sequence (Q95LI8 22-105 limits assumed, chain 2 of 2): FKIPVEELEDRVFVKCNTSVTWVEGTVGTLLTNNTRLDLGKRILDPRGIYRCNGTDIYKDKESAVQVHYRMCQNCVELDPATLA
T2 sequence (P07766 23-126 limits assumed, chain 1 of 2): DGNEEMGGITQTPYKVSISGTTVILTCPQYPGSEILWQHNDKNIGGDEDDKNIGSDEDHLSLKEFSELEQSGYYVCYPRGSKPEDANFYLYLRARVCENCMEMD
T2 sequence (P04234 22-105 limits assumed, chain 2 of 2): as the sequence (Q95LI8 22-105 limits assumed, chain 2 of 2) above, with V5I, K15N, V20I, T32S, N33D, N34I, A64T, N74S, L83V counted along it

B1: anti-CD3/MUC16 bispecific antibody MCH7-23L2-MCH7 (bispecific antibody, human IgG1, kappa, L234A L235A)
heavy 1: QVQLVQSGAEVKKPGASVKVSCKASGYTFTDYNIHWVRQAPGQGLEWMGYIYPYNGVSDYNQNFKSRVTMTTDTSTSTAYMELRSLRSDDTAVYYCARWDFGSGYYFDYWGQGTLVTVSSASTKGPSVFPLAPSSKSTSGGTAALGCLVKDYFPEPVTVSWNSGALTSGVHTFPAVLQSSGLYSLSSVVTVPSSSLGTQTYICNVNHKPSNTKVDKKVEPKSCEVQLVESGGGLVQPGGSLKLSCAASGFTFSTYAMNWVRQAPGKGLEWVGRIRSKYNNYATYYADSVKDRFTISRDDSKNTLYLQMNSLKTEDTAVYYCTRHGNFGNSYVSWFAYWGQGTTVTVSSGGGGSGGGGSGGGGSQAVVTQEPSLTVSPGGTVTLTCRSSTGAVTTSNYANWVQQKPGQAPRGLIGGTNKRAPGVPARFSGSLLGGKAALTLSGAQPEDEAEYFCALWYSNLWVFGGGTKLTVLGEPKSSDKTHTCPPCPAPEAAGGPSVFLFPPKPKDTLMISRTPEVTCVVVAVSHEDPEVKFNWYVDGVEVHNAKTKPREEQYNSTYRVVSVLTVLHQDWLNGKEYKCKVSNKALAAPIEKTISKAKGQPREPQVCTLPPSRDELTKNQVSLSCAVKGFYPSDIAVEWESNGQPENNYKTTPPVLDSDGSFFLVSKLTVDKSRWQQGNVFSCSVMHEALHNHYTQKSLSLSPGK
heavy 2: not shown
light: EIVLTQSPATLSLSPGERATLSCRASSSVIYMSWYQQKPGQAPRLLIYGTSTLASGIPARFSGSGSGTDFTLTISSLEPEDFAVYYCQQWSSNPFTFGQGTKLEIKRTVAAPSVFIFPPSDEQLKSGTASVVCLLNNFYPREAKVQWKVDNALQSGNSQESVTEQDSKDSTYSLSSTLTLSKADYEKHKVYACEVTHQGLSSPVTKSFNRGEC
notes: MCH7-23L2ScFv-Hole (VH-CH1-scFv-Fc) + MCH7-KIH-Knob + two light chains MCL4 LC
Binder B1 has a Kd [1] of 30.4 nM, a koff [1] of 0.00378 s⁻¹ and a kon [1] of 124000 M⁻¹ s⁻¹. For the same binder, the Kd [2] was 44.3 nM, the koff [2] was 0.00933 s⁻¹ and the kon [2] was 211000 M⁻¹ s⁻¹. The Kd (Human MUC16-His [3]) was 3.17 nM, the koff (Human MUC16-His [3]) was 0.000524 s⁻¹ and the kon (Human MUC16-His [3]) was 166000 M⁻¹ s⁻¹.

B2: humanized anti-MUC16 antibody Hu-L4H7 (antibody, human IgG1, kappa, L234A L235A, V domains shown)
VH: QVQLVQSGAEVKKPGASVKVSCKASGYTFTDYNIHWVRQAPGQGLEWMGYIYPYNGVSDYNQNFKSRVTMTTDTSTSTAYMELRSLRSDDTAVYYCARWDFGSGYYFDYWGQGTLVTVSS
VL: EIVLTQSPATLSLSPGERATLSCRASSSVIYMSWYQQKPGQAPRLLIYGTSTLASGIPARFSGSGSGTDFTLTISSLEPEDFAVYYCQQWSSNPFTFGQGTKLEIKR
notes: human IgG1 with L234A, L235A, D265A, P329A and kappa; Biotinylated in the CA125 ELISA; also called humanized MUC-16 antibody
With B2 the Kd (Human MUC16-His [4]) was 2.9 nM, the koff (Human MUC16-His [4]) was 0.000911 s⁻¹ and the kon (Human MUC16-His [4]) was 314000 M⁻¹ s⁻¹.

B3: anti-MUC16 antibody 776.1(C33S) (antibody, human IgG1, kappa, L234A L235A, V domains shown)
VH: EVQLQQSGPELVKPGASVKISCKASGYTFTDYNIHWVKQSHGKILEWIGYIYPYNGVSDYNQNFKSKATLIVDNSSNTAYMELRSLTSEDSAVYYCARWDFGSGYYFDYWGQGTTLTVSS
VL: QIVLSQSPAILFASPGETVTMTCRASSSVIYMSWNQQKPGSSPKPWIYGTSTLASGVPTRFSGSGSGTSYSLTISRVEAEDAATYYCQQWSSNPFTFGSGTKLEIKR
B3 gave a Kd (Human MUC16-His [5]) of 0.921 nM, a koff (Human MUC16-His [5]) of 0.000245 s⁻¹ and a kon (Human MUC16-His [5]) of 266000 M⁻¹ s⁻¹. The Kd (Rhesus monkey MUC16-His) was 1.03 nM, the koff (Rhesus monkey MUC16-His) was 0.000826 s⁻¹ and the kon (Rhesus monkey MUC16-His) was 803000 M⁻¹ s⁻¹.
